The test deals with actin filaments (UniProt P68139). The test can be described thus: immunogold electron microscopy.

Substance “Cap Z(36/32) (from UniProt P13127 1-286; P14315 1-277) (complex)” came in with a percent of filaments with gold label at the barbed end (immune) of 17.4%.
